Reference: PMC5095914
Blank lines part the entries; values can stand above or below the substance they belong to.

Assays:
[1] = biological target: YidC cysteine mutant labelled with Cy3 at position 454 (E. coli) (UniProt P25714); assay: other fluorescence titration; 60 nM Cy3-labelled YidC in 20 mM Hepes/KOH pH 7.5, 100 mM KCl, 10 mM MgOAc2, 5% glycerol, 0.1% DDM mixed 1:1 with 0.6 nM to 19.2 µM 70S ribosomes; 10 min at 20°C; fluorescence intensity on a Monolith NT.115; four repeats
[2] = biological target: xFOc (subunit c of the ATP synthase with cysteines C21 and C65), expressed in E. coli C43 membranes (E. coli) (UniProt P68699); assay: cross-linking; E. coli C43 membranes expressing xFOc oxidised with copper-1,10-phenanthroline (CuPh), with or without DTT; SDS-PAGE, western blotting with FOc antibody
[3] = biological target: xFOc (subunit c of the ATP synthase with cysteines C21 and C65), in vitro translated (E. coli) (UniProt P68699); assay: cross-linking; xFOc translated in vitro and inserted into proteoliposomes (large scale); mild oxidising conditions (lipids, atmospheric oxygen), no CuPh; non-reducing SDS-PAGE, phosphor imaging; c10-ring with HTL, SecYEG or without YidC, not with YidC alone

Kd [1]: 161 nM
Substance: 70S ribosomes (complex)

stoichiometry N [2]: 10
Substance: xFOc (subunit c of the ATP synthase with cysteines C21 and C65), expressed in E. coli C43 membranes (from UniProt P68699 1-79) (natural protein)

stoichiometry N [3]: 10
Substance: xFOc (subunit c of the ATP synthase with cysteines C21 and C65), in vitro translated (from UniProt P68699 1-79) (natural protein)
